In patent US20260275319A1 (MAX PLANCK GESELLSCHAFT ZUR F RDERUNG DER WISSENSCHAFTEN E V, published 2026):
Residue numbers refer to the chain shown, from its start. Names may count otherwise. Primed or numbered codes have the meaning given here. Ends that are not written are not given here. FITC′ = fluorescein isothiocyanate label; Ahx = NCCCCCC(=O)O

B1: M. mazei Adriase with C-terminal Strep-tag (enzyme)
chain: TLVIAFIGKNGAVMAGDMREITFEGEKPDREKLEKELYSGSIVTDEEMQKKAEEFGVKITVADCKEKVSERNGVLVGEVSSAEGGVVKKRRLYASAGNFAIAELINTEMTLTSQGKGSNFIAFGNEFTKQVANKCFKDNWTKKSNLQDAVKILILCMETVARKTASVSKQFMIVQTASNADVLKVVEKDRNCGSWSHPQFEK
notes: also called MM_2909; Archaeal Peptide Recombinase
B2: M. mazei Adriase with C-terminal His-tag (enzyme)
chain: TLVIAFIGKNGAVMAGDMREITFEGEKPDREKLEKELYSGSIVTDEEMQKKAEEFGVKITVADCKEKVSERNGVLVGEVSSAEGGVVKKRRLYASAGNFAIAELINTEMTLTSQGKGSNFIAFGNEFTKQVANKCFKDNWTKKSNLQDAVKILILCMETVARKTASVSKQFMIVQTASNADVLKVVEKDRNCGSHHHHHH
notes: Active form without start-methionine; also called M. mazei Adriase-His6; MM_2909
B3: M. jannaschii Adriase without NTN, with C-terminal His-tag (enzyme)
chain: MEQLRKQLIDFGKVMSIVNKIVKNGEIGVIKDGKLHLYDDYIAIDKIDPNPKVFKVVDVEGNFKDGDIVVIENGDMKIKGTNEKVTTKYIIIHKGSHHHHHH
notes: also called Adriase^ΔNTN
B4: M. jannaschii Adriase S1A mutant with C-terminal His-tag (enzyme)
chain: ALIICYYGKNGAVIGGDRRQIFFRGSEENRKILEEKLYSGEIKSEEELYKLAEKLNIKIIIEDDREKVRKISDSVVCGEVRSLGIDAKRRRVYATKGKCAIVDILNDTVTNQTIKEGFGIVVLGNRFLKKKAEEELKRTAKLFPMMPIQQIEDAIKEIFEKLKWHPTVSKEYDIYSVNKYEKNFEEVIKKDIESLFKYREQLRKQLIDFGKVMSIVNKIVKNGEIGVIKDGKLHLYDDYIAIDKIDPNPKVFKVVDVEGNFKDGDIVVIENGDMKIKGTNEKVTTKYIIIHKGSHHHHHH
notes: The entry is the S1A mutant itself
B5: M. jannaschii MtrA^Δ194-245 (enzyme)
chain: MHHHHHHGSMVMSMANKREPAPGWPIVSGEYVVGNPESCVGVVTLGSHGLEQACIDAGAAIAGPCHTENLGIEKVVANYISNPNIRFMILCGSEVQGHITGQCFKALWENGIGDDGGIIGAKGAIPFLENVNKEAVERFRRQIVEVVDLIDCEDIGKITQAIKECLSKDPGAIDEDPFIIELEGGKGGGEEEEGVIKPITPE
notes: For MST it was labelled with NT-647-NHS; also called MJ_0851
B6: (15)KDPGA(10) peptide, M. jannaschii MtrA-derived, N-terminal FITC-Ahx (peptide)
peptide: {FITC′-Ahx}-EDIGKITQAIKECLSKDPGAIDEDPFIIEL
notes: Synthetic peptide (Genscript); also called (F15)KDPGA(10)
B7: (0)KDPGA(10) peptide, M. jannaschii MtrA-derived, C-terminal FITC (peptide)
peptide: KDPGAIDEDPFIIEL-{K(FITC)}
notes: Synthetic peptide (Genscript)
B8: (10)KDPGA(10) peptide, M. jannaschii MtrA-derived, C-terminal FITC (peptide)
peptide: ITQAIKECLSKDPGAIDEDPFIIEL-{K(FITC)}
B9: (5)KDPGA(10) peptide, M. jannaschii MtrA-derived, C-terminal FITC (peptide)
peptide: KECLSKDPGAIDEDPFIIEL-{K(FITC)}
notes: Synthetic peptide (Genscript); also called (5)KDPGA(10F)
B10: M. jannaschii Ub-KDPGA(10) (other)
chain: MHHHHHHGSMKIKIVPAVGGGSPLELEVAPNATVGAVRTKVCAMKKLPPDTTRLTYKGRALKDTETLESLGVADGDKFVLITRTVGGCGEKDPGAIDEDPFIIEL
notes: also called Ubiquitin fused to KDPGA(10)

Key:
[1] = biological target: T1, MtrH of M. mazei (subunit of the MtrA-MtrH complex), from whole cell extract (Methanosarcina mazei); assay: pulldown from M. mazei whole cell extract with Strep-tagged Adriase, LC-MS/MS (Experiment 2.1)
T1 sequence (P80650 1-316, looked up): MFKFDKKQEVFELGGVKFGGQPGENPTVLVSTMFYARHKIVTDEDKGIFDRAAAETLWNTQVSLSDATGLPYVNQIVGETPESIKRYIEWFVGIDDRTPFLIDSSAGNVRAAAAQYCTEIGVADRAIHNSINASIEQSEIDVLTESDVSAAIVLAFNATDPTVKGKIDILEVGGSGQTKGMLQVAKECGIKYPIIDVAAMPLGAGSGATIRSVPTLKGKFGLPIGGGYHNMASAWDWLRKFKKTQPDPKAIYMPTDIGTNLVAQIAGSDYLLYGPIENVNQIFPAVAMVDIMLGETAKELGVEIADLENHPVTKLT

[2] = biological target: T2, MtrG of M. mazei (subunit of the MtrA-MtrH complex), from whole cell extract (Methanosarcina mazei); assay: as above
T2 sequence (P80656 whole entry, looked up): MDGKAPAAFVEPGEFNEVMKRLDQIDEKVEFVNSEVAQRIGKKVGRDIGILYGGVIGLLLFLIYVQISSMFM

[3] = biological target: T3, MtrB of M. mazei (subunit of the MtrA-MtrH complex), from whole cell extract (Methanosarcina mazei); assay: as above
T3 sequence (P80655 whole entry, looked up): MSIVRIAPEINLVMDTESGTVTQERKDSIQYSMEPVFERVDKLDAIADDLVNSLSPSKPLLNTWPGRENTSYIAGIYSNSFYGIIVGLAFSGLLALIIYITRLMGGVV

[4] = biological target: T4, MtrE of M. mazei (subunit of the MtrA-MtrH complex), from whole cell extract (Methanosarcina mazei); assay: as above
T4 sequence (P80651 whole entry, looked up): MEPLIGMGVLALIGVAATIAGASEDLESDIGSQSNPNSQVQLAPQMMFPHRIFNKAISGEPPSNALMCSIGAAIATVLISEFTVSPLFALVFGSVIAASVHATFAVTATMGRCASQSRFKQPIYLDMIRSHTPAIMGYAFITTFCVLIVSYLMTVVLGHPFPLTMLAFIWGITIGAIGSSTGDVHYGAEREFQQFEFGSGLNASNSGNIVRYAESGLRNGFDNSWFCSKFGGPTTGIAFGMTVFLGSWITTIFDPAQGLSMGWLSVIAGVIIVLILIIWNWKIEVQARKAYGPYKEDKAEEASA

[5] = biological target: T5, M. mazei Ub-(5)KDPGA(10) with N-terminal His-tag; assay: SDS-PAGE time course of Adriase with Ub-(5)KDPGA(10), band of the covalent conjugate
T5 chain: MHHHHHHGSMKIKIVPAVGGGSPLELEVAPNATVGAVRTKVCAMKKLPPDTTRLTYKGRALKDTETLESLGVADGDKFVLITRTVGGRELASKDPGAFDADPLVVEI

[6] = biological target: T6, BSA (UniProt P02769 25-607); assay: pulldown on Ni-NTA beads with His6-tagged Adriase, SDS-PAGE of flow-through, washes and eluate
T6 construct: also called control protein BSA

[7] = biological target: B5; assay: size-exclusion chromatography with light scattering (SEC-MALS) of the 1:1 molar mixture
[8] = biological target: B5; assay: microscale thermophoresis (MST), fitted curve
[9] = biological target: T7, M. jannaschii MtrA^Δ174-245 with N-terminal His6-tag (Methanocaldococcus jannaschii, UniProt Q58261 1-169); assay: microscale thermophoresis (MST), fitted curve, MtrA^Δ174-245
T7 sequence: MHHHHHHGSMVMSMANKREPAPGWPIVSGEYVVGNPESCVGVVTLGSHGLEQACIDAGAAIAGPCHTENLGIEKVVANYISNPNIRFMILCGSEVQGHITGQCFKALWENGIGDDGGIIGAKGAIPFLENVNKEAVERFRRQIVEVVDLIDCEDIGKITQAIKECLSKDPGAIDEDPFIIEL

[10] = biological target: B9; assay: microscale thermophoresis (MST), fitted curve, peptide (5)KDPGA(10)
[11] = biological target: B7; assay: microscale thermophoresis (MST), fitted curve, peptide (0)KDPGA(10)
[12] = biological target: B6; assay: microscale thermophoresis (MST), fitted curve, peptide (15)KDPGA(10)
[13] = biological target: B8; assay: microscale thermophoresis (MST), fitted curve, peptide (10)KDPGA(10)
[14] = biological target: B4; assay: microscale thermophoresis (MST), three measurements; table row MtrA
[15] = biological target: B4; assay: microscale thermophoresis (MST); table row (15)KDPGA(10)
[16] = biological target: B4; assay: microscale thermophoresis (MST); table row (0)KDPGA(10)
[17] = biological target: B4; assay: microscale thermophoresis (MST); table row (10)KDPGA(10)
[18] = biological target: B4; assay: microscale thermophoresis (MST); table row (5)KDPGA(10)
[19] = biological target: T8, M. jannaschii Adriase with C-terminal His-tag (Methanocaldococcus jannaschii, UniProt Q57968 2-293); assay: SDS-PAGE time course of the reaction in the presence of MtrA, band of the covalent conjugate
T8 construct: Active enzyme; also called unmodified Adriase; MJ_0548
T8 sequence: B4 chain with A1S

T6 sequence (P02769 25-607 limits assumed): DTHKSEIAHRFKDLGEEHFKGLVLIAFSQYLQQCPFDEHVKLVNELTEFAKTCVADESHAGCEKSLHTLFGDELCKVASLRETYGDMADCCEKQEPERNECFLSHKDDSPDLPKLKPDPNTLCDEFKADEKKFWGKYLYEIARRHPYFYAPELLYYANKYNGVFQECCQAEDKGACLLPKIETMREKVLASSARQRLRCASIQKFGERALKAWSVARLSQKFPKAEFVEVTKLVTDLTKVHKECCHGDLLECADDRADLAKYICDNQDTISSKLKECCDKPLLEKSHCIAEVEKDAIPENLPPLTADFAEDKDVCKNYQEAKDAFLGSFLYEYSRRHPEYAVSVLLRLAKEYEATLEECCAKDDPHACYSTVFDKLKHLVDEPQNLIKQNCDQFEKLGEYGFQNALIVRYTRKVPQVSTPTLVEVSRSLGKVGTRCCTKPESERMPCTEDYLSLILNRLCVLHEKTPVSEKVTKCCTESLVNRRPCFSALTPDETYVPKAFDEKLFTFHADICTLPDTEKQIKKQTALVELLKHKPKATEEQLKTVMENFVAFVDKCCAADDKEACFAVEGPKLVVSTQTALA

B1
Intensity (mass spectrometry) [1]: 6e+07 arbitrary units
Intensity (mass spectrometry) [2]: 860000 arbitrary units
Intensity (mass spectrometry) [3]: 1.4e+06 arbitrary units
Intensity (mass spectrometry) [4]: 2.1e+06 arbitrary units

B2
binding result [5]: binds
binding result [6]: no binding

B3
binding result [7]: no binding

B4
EC50 (read off the curve) [8]: ~200 nM
EC50 (read off the curve) [9]: ~600 nM
EC50 (read off the curve) [10]: ~100 nM
EC50 (read off the curve) [11]: ~400 nM
EC50 (read off the curve) [12]: ~80 nM
EC50 (read off the curve) [13]: ~200 nM

B5
Kd [14]: 129 nM

B6
Kd [15]: 74 nM

B7
Kd [16]: 363 nM

B8
Kd [17]: 168 nM

B9
Kd [18]: 121 nM

B10
binding result [19]: binds
